Experimental data from US20240261333A1, “NOVEL TARGETS FOR ENHANCING ANTI-TUMOR IMMUNITY” (THE BROAD INSTITUTE, INC., priority 2021, published 2024).

Biological target: T1, B3GNT2 (Homo sapiens, UniProt Q9NY97)
T1 construct: The respective ORFs of candidate genes [CD274 (NM_014143), MCL1 (NM_021960), JUNB (NM_002229), and B3GNT2 (NM_006577)] were synthesized; expressed in transfected cells; host or cells: A375 melanoma cells (lentiviral ORF overexpression)
T1 sequence (Q9NY97 1-397): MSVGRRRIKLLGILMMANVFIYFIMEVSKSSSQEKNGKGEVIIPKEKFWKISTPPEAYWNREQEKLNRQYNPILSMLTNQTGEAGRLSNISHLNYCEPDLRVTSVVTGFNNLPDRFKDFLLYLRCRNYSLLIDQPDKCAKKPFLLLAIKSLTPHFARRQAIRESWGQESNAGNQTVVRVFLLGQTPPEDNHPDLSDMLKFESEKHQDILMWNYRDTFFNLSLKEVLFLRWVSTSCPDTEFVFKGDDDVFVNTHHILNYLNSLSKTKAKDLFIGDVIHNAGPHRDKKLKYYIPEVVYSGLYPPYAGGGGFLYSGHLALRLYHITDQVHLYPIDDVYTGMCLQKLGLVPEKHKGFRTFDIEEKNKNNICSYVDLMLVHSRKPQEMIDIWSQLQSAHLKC
Test: Co-IP of FLAG-tagged B3GNT2 followed by mass spectrometry
Format: cell-based
Design: C-term IgG / C-term flag: unit not given here
Protocol: Cells were plated in 10-cm cell culture dishes and grown to 60-80% confluency. For each condition, two biological replicates were harvested for co-IP. Cells were washed with PBS and 4 mL of lysis buffer (20 mM HEPES, 1% Triton X-100, 150 mM NaCl, 1 mM EDTA, and 10% glycerol) containing protease inhibitor cocktail was added. Cells were scraped and lysate was incubated at 4° C. under rotary agitation for 1 h. Lysate was centrifuged at 14,000×g for 10 min at 4° C. Supernatant was transferred to a new tube and an aliquot was taken as the input. […] For Western blots, 10 μg/mL Chicken Anti-FLAG (Aves labs ET-DY100) and IgY control (R&D Systems AB-101-C) antibodies were biotinylated (Thermo Fisher Scientific 90407) and added to the respective conditions. Lysates with antibodies were incubated at 4° C. under rotary agitation overnight. For each mL of lysate, 50 μL of Pierce Protein A/G Magnetic Beads (Mass spectrometry; Thermo Fisher Scientific 88803) or Pierce Streptavidin Magnetic Beads (Western blot; Thermo Fisher Scientific 88817) was washed twice with lysis buffer. Lysates with antibodies were added to the beads and incubated at 4° C. under rotary agitation for 4 h. Beads were washed with lysis buffer 3 times and resuspended in lysis buffer for storage. […] This solution was subjected to solid phase extraction to concentrate the peptides and remove unwanted reagents followed by injection onto a Shimadzu HPLC with fraction collector. Eight fractions were collected and after concentration were injected on a Waters NanoAcquity HPLC equipped with a self-packed Aeris 3 μm C18 analytical column 0.075 mm by 20 cm, (Phenomenex). Peptides were eluted using standard reverse-phase gradients. The effluent from the column was analyzed using a Thermo Orbitrap Elite mass spectrometer (nanospray configuration) operated in a data dependent manner for 54 minutes. […] Scaffold Q+S (Proteome Software) was used to provide consensus reports for the identified proteins.

[1] = Co-IP followed by mass spectrometry of B3GNT2, C-term tag, FLAG pull-down
[2] = Co-IP followed by mass spectrometry of B3GNT2, C-term tag, IgG pull-down
[3] = Co-IP followed by mass spectrometry of B3GNT2, N-term tag, FLAG pull-down
[4] = Co-IP followed by mass spectrometry of B3GNT2, N-term tag, IgG pull-down
[5] = Co-IP with FLAG antibody, C-terminally FLAG-tagged B3GNT2, mass spectrometry count, unit not given
[6] = Co-IP with FLAG antibody, N-terminally FLAG-tagged B3GNT2, mass spectrometry count, unit not given
[7] = Co-IP with IgG control antibody, C-terminally FLAG-tagged B3GNT2, mass spectrometry count, unit not given
[8] = Co-IP with IgG control antibody, N-terminally FLAG-tagged B3GNT2, mass spectrometry count, unit not given

| Substance | C-term flag [1] | C-term IgG [2] | N-term FLAG [3] | N-term IgG [4] | C-term flag [5] | N-term FLAG [6] | C-term IgG [7] | N-term IgG [8] |
| --- | --- | --- | --- | --- | --- | --- | --- | --- |
| PCMT1 | 2 | 0 | 4 | 0 |  |  |  |  |
| PIGR |  |  |  |  | 5 | 2 | 0 | 0 |
| PKM | 3 | 2 | 3 | 2 |  |  |  |  |
| PPIA |  |  |  |  | 0 | 6 | 0 | 0 |
| PPIB |  |  |  |  | 2 | 0 | 0 | 0 |
| PRBP1 | 9 | 6 | 6 | 7 |  |  |  |  |
| PRKDC |  |  |  |  | 11 | 24 | 0 | 0 |
| PRRC2A | 5 | 3 | 2 | 3 |  |  |  |  |
| PRRC2C | 15 | 6 | 6 | 11 |  |  |  |  |
| PSMA1 |  |  |  |  | 0 | 2 | 0 | 0 |
| PSMA4 |  |  |  |  | 0 | 2 | 0 | 0 |
| PSMA7 | 2 | 0 | 4 | 0 |  |  |  |  |
| PSMB5 | 0 | 0 | 4 | 0 |  |  |  |  |
| PSMC4 |  |  |  |  | 0 | 3 | 0 | 0 |
| PSMD3 |  |  |  |  | 0 | 3 | 0 | 0 |
| PSMD4 |  |  |  |  | 0 | 2 | 0 | 0 |
| PXN |  |  |  |  | 0 | 2 | 0 | 0 |
| RAB1B |  |  |  |  | 2 | 0 | 0 | 0 |
| RNASE1 |  |  |  |  | 2 | 0 | 0 | 0 |
| RPL28 | 16 | 3 | 8 | 3 |  |  |  |  |
| RPS24 | 8 | 2 | 0 | 4 |  |  |  |  |
| S100A8 |  |  |  |  | 3 | 15 | 5 | 4 |
| S100A9 |  |  |  |  | 9 | 18 | 5 | 0 |
| SEC16A |  |  |  |  | 0 | 2 | 0 | 0 |
| SEL1L |  |  |  |  | 5 | 3 | 0 | 0 |
| SLC27A4 |  |  |  |  | 2 | 0 | 0 | 0 |
| SPTAN1 | 3 | 0 | 0 | 0 |  |  |  |  |

| Substance | C-term flag [1] | C-term IgG [2] | N-term FLAG [3] | N-term IgG [4] | C-term flag [5] | N-term FLAG [6] | C-term IgG [7] | N-term IgG [8] |
| --- | --- | --- | --- | --- | --- | --- | --- | --- |
| SQSTM1 |  |  |  |  | 43 | 3 | 3 | 0 |
| SRSF1 | 9 | 3 | 4 | 5 |  |  |  |  |
| SRSF3 | 7 | 3 | 6 | 4 |  |  |  |  |
| SSRP1 | 6 | 0 | 0 | 0 |  |  |  |  |
| STRAP |  |  |  |  | 3 | 4 | 0 | 0 |
| SUMF2 |  |  |  |  | 3 | 0 | 0 | 0 |
| SUPT16H | 3 | 0 | 0 | 0 |  |  |  |  |
| SYNM | 5 | 2 | 5 | 5 |  |  |  |  |
| TAF15 | 10 | 4 | 5 | 10 |  |  |  |  |
| TCP1 | 3 | 0 | 0 | 0 |  |  |  |  |
| TECR |  |  |  |  | 9 | 0 | 0 | 0 |
| TFAM | 3 | 0 | 0 | 0 |  |  |  |  |
| TNC |  |  |  |  | 10 | 0 | 0 | 0 |
| TNKS1BP1 | 8 | 2 | 2 | 4 |  |  |  |  |
| TOR1AIP2 |  |  |  |  | 2 | 0 | 0 | 0 |
| TPI1 | 2 | 0 | 3 | 2 |  |  |  |  |
| TRIM21 | 0 | 0 | 6 | 0 |  |  |  |  |
| TUBA1B |  |  |  |  | 0 | 76 | 0 | 0 |
| TUBB |  |  |  |  | 117 | 164 | 10 | 10 |
| TUBB2A |  |  |  |  | 0 | 128 | 0 | 0 |
| TUBB3 |  |  |  |  | 82 | 115 | 0 | 0 |
| TUBB4B |  |  |  |  | 119 | 161 | 13 | 0 |
| UGGT1 |  |  |  |  | 5 | 2 | 0 | 0 |
| VIM | 411 | 337 | 402 | 452 |  |  |  |  |
| XRCC5 |  |  |  |  | 3 | 0 | 0 | 0 |
| YBX3 |  |  |  |  | 7 | 0 | 0 | 0 |
